Assay results reported in US20090060919A1 (AstraZeneca / MedImmune, published 2009).
Residue numbers refer to the chain shown, from its start.

B1: Antibody 4 IgG (antibody, V domains shown)
VH: QVQLVQSGAEVKKPGATVKLSCKVYGYIFTDYNIYWVRQAPGKGLEWMGLIDPDNGETFYAEKFQGRATMTADTSSDRAYMELTSLTFEDTATYYCATVMGKWIKGGYDYWGRGTLVTVSS
VL: QSVLTQPPSVSGAPGQRVTISCTGSSSNIGAGYDVHWYQQLPGTAPKLLIYDNFNRPSGVPDRFSGSKSGTSASLAIIGLQTEDEADYYCQSYDSRGGHSPFGTGTKLTVL
notes: Whole human IgG (section 1.4: IgG1)
B2: Antibody 5 IgG (antibody, V domains shown)
VH: B1 VH
VL: B1 VL with R96T, G97K, G98H, H99T
notes: as for B1
B3: Antibody 6 IgG (antibody, V domains shown)
VH: B1 VH
VL: B1 VL with R96T, G97M, G98R, S100G
notes: as for B1
B4: Antibody 12 IgG (antibody, V domains shown)
VH: B1 VH
VL: B1 VL with R96S, G97I, G98D
notes: as for B1
B5: Antibody 13 IgG (antibody, V domains shown)
VH: B1 VH
VL: B1 VL with R96N, G97I, G98L, H99Y
notes: as for B1
B6: Antibody 16 IgG (antibody, V domains shown)
VH: B1 VH with M100S, G101L, W103S, I104A
VL: B1 VL with G97H, G98H, S100A
notes: as for B1
B7: Antibody 19 IgG (antibody, V domains shown)
VH: B1 VH
VL: B1 VL with R96T, G97L, G98S
notes: as for B1
B8: Antibody 20 IgG (antibody, V domains shown)
VH: B1 VH
VL: B1 VL with R96S, G97T, G98S, H99S
notes: as for B1
B9: Antibody 23 IgG (antibody, V domains shown)
VH: B1 VH
VL: B1 VL with R96H, G97H, G98L, H99Y, P101S
notes: as for B1
B10: Antibody 28 IgG (antibody, V domains shown)
VH: B1 VH
VL: B1 VL with R96S, G97S, G98L
notes: as for B1
B11: Antibody 18 IgG (antibody, V domains shown)
VH: B1 VH with M100L, G101L, K102R, W103S, I104A
VL: B1 VL with R96H, G97L, G98Q, H99L
notes: as for B1
B12: Antibody 21 IgG (antibody, V domains shown)
VH: B1 VH with M100T, G101L, W103S, I104A
VL: B1 VL with R96S, G97S, G98Q, H99L
B13: Antibody 22 IgG (antibody, V domains shown)
VH: B1 VH with M100T, G101L, W103S, I104A
VL: B1 VL with R96S, H99Y, S100A
B14: Antibody 26 IgG (antibody, V domains shown)
VH: B1 VH with M100S, G101L, W103E, I104A
VL: B1 VL with R96A, G97S, G98R, S100A
B15: Antibody 2 scFv (scFv, V domains shown)
VH: B1 VH with M100S, G101L, K102R, W103S, I104A
VL: B1 VL with R96S, G97L, G98S, H99G, P101L
notes: Purified scFv, non-germlined; not shown: scFv linker and any tags; the libraries are only cited to Vaughan et al. 1996
B16: Antibody 3 scFv (scFv, V domains shown)
VH: B1 VH
VL: B1 VL with R96T, G97F, G98N, S100A
notes: as for B15
B17: Antibody 7 scFv (scFv, V domains shown)
VH: B1 VH with M100T, G101L, W103S, I104A
VL: B1 VL with R96D, G97R, G98R, H99N
notes: Purified scFv, non-germlined
B18: Antibody 9 scFv (scFv, V domains shown)
VH: B1 VH with M100T, G101L, K102R, W103S, I104A
VL: B1 VL with R96P, G97S, G98S, H99T
notes: Purified scFv, non-germlined
B19: Antibody 10 scFv (scFv, V domains shown)
VH: B1 VH with M100S, G101L, K102R, W103A, I104A
VL: B1 VL with R96E, G97Q, G98E, H99L, S100A
notes: Purified scFv, non-germlined
B20: Antibody 14 scFv (scFv, V domains shown)
VH: B1 VH
VL: B1 VL with R96H, G97H, G98R
notes: Purified scFv, non-germlined
B21: Antibody 15 scFv (scFv, V domains shown)
VH: B1 VH with M100T, G101L, W103T, I104A
VL: B1 VL with R96H, G97K, H99Y, S100G, P101G
notes: Purified scFv, non-germlined
B22: Antibody 17 scFv (scFv, V domains shown)
VH: B1 VH with M100T, G101L, W103S, I104A
VL: B1 VL with R96Q, G97S, G98S, H99T
notes: Purified scFv, non-germlined
B23: Antibody 18 scFv (scFv, V domains shown)
VH: B1 VH with M100L, G101L, K102R, W103S, I104A
VL: B1 VL with R96H, G97L, G98Q, H99L
notes: Purified scFv, non-germlined
B24: Antibody 21 scFv (scFv, V domains shown)
VH: B1 VH with M100T, G101L, W103S, I104A
VL: B1 VL with R96S, G97S, G98Q, H99L
notes: Purified scFv, non-germlined
B25: Antibody 22 scFv (scFv, V domains shown)
VH: B1 VH with M100T, G101L, W103S, I104A
VL: B1 VL with R96S, H99Y, S100A
notes: Purified scFv, non-germlined
B26: Antibody 23 scFv (scFv, V domains shown)
VH: B1 VH
VL: B1 VL with R96H, G97H, G98L, H99Y, P101S
notes: Purified scFv, non-germlined
B27: Antibody 24 scFv (scFv, V domains shown)
VH: B1 VH with M100T, G101L, W103T, I104A
VL: B1 VL with G97N, H99Y, S100G, P101G
notes: Purified scFv, non-germlined
B28: Antibody 25 scFv (scFv, V domains shown)
VH: B1 VH with M100T, G101L, W103S, I104A
VL: B1 VL with R96N, G97H, G98K, H99T
notes: Purified scFv, non-germlined
B29: Antibody 26 scFv (scFv, V domains shown)
VH: B1 VH with M100S, G101L, W103E, I104A
VL: B1 VL with R96A, G97S, G98R, S100A
notes: Purified scFv, non-germlined
B30: Antibody 27 scFv (scFv, V domains shown)
VH: B1 VH with M100S, G101L, W103E, I104A
VL: B1 VL with R96P, G97T, G98Q, H99T
notes: Purified scFv, non-germlined
B31: Antibody 28 scFv (scFv, V domains shown)
VH: B1 VH
VL: B1 VL with R96S, G97S, G98L
notes: Purified scFv, non-germlined
B32: Antibody 6 scFv (scFv, V domains shown)
VH: B1 VH
VL: B1 VL with R96T, G97M, G98R, S100G
notes: as for B15
B33: Antibody 12 scFv (scFv, V domains shown)
VH: B1 VH
VL: B1 VL with R96S, G97I, G98D
notes: Purified scFv, non-germlined
B34: Antibody 13 scFv (scFv, V domains shown)
VH: B1 VH
VL: B1 VL with R96N, G97I, G98L, H99Y
notes: Purified scFv, non-germlined
B35: Antibody 1 scFv (scFv, V domains shown)
VH: B1 VH with M100L, G101H, K102R, W103R, I104L
VL: B1 VL with R96S, G97L, G98S, H99G, P101L
notes: Purified scFv, non-germlined; also called parent; not shown: scFv linker and any tags; the libraries are only cited to Vaughan et al. 1996
B36: Antibody 4 scFv (scFv, V domains shown)
VH: B1 VH
VL: B1 VL
notes: as for B15
B37: Antibody 5 scFv (scFv, V domains shown)
VH: B1 VH
VL: B1 VL with R96T, G97K, G98H, H99T
notes: as for B15
B38: Antibody 8 scFv (scFv, V domains shown)
VH: B1 VH with M100L, K102R
VL: B1 VL with R96P, G97T, G98H, H99T
notes: Purified scFv, non-germlined
B39: Antibody 11 scFv (scFv, V domains shown)
VH: B1 VH
VL: B1 VL with R96P, G97T, G98L, H99T
notes: Purified scFv, non-germlined
B40: Antibody 16 scFv (scFv, V domains shown)
VH: B1 VH with M100S, G101L, W103S, I104A
VL: B1 VL with G97H, G98H, S100A
notes: Purified scFv, non-germlined

Biological target: T1, human IgEλ (U266 derived) (human, UniProt P01854-1 1-428)
T1 sequence (P01854 other isoform, or with tags, fused parts or gaps): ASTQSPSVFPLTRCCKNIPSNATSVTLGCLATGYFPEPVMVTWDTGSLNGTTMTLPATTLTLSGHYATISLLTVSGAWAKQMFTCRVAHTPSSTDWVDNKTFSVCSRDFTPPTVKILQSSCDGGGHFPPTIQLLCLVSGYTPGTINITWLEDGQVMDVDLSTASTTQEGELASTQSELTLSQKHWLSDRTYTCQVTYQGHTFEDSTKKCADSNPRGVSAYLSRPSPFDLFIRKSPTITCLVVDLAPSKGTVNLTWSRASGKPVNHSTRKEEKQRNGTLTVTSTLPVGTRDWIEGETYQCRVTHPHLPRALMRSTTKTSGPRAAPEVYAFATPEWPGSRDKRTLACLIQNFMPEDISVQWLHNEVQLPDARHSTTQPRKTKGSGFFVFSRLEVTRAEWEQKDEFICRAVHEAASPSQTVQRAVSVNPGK
Assay: cell-based or functional assay

Row | Binder | RBL-ER51 calcium signalling IC50 (Geomean), Human IgE [nM]
1 | B1 | 0.088
2 | B2 | 0.091
3 | B3 | 0.096
4 | B4 | 0.134
5 | B5 | 0.088
6 | B6 | 0.292
7 | B7 | 0.095
8 | B8 | 0.191
9 | B9 | 0.109
10 | B10 | 0.099
11 | B11 | 0.532
12 | B12 | 0.306
13 | B13 | 0.262
14 | B14 | 0.398

Biological target: recombinant chimaeric cynomolgus IgE (D12 variable regions, cynomolgus IgE constant region) (cynomolgus monkey)
Sequence (heavy, as listed by the source limits assumed, chain 1 of 2): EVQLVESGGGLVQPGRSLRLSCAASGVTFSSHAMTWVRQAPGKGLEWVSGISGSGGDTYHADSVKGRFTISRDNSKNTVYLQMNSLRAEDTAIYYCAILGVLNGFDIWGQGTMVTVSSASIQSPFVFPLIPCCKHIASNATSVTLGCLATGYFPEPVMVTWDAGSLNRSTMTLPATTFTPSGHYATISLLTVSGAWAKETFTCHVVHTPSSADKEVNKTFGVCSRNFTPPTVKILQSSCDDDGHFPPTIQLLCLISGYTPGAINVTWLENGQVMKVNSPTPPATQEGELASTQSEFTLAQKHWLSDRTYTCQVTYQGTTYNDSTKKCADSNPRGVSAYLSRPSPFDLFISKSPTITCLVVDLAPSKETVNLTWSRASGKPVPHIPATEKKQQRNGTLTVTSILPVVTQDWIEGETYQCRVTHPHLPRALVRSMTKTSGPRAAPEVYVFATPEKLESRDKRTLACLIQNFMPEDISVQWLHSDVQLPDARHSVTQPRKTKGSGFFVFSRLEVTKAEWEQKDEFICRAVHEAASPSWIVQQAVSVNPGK
Sequence (light, as listed by the source limits assumed, chain 2 of 2): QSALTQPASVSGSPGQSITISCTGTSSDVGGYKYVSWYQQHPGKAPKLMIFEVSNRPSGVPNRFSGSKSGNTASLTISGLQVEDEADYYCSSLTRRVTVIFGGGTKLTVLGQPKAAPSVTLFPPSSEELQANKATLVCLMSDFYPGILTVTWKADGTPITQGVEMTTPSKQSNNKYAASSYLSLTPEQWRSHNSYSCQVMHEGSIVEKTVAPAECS
Assay: cell-based or functional assay

Row | Binder | RBL-ER51 calcium signalling IC50 (Geomean), Cynomolgus IgE [nM]
15 | B12 | 3.58
16 | B13 | 2.66
17 | B14 | 5.1

Biological target: T1, human IgEλ (U266 derived)
Assay: HTRF competition: scFv against Eu-cryptate human IgE binding to human FcεRI-Fc

Row | Binder | IC50 [nM]
18 | B15 | 28
19 | B16 | 5
20 | B17 | 9
21 | B18 | 9
22 | B19 | 10
23 | B20 | 8
24 | B21 | 7
25 | B22 | 6
26 | B23 | 11
27 | B24 | 6
28 | B25 | 6
29 | B26 | 1
30 | B27 | 9
31 | B28 | 8
32 | B29 | 12
33 | B30 | 9
34 | B31 | 1

Biological target: T1, human IgEλ (U266 derived)
Assay: HTRF competition: scFv against Eu-cryptate human IgE binding to human FcεRI-Fc; geomean

Row | Binder | IC50 [nM]
35 | B32 | 3
36 | B33 | 3
37 | B34 | 2

Biological target: T1, human IgEλ (U266 derived)
Assay: SPR (BIAcore 2000): IgG captured on protein G', IgE as analyte, bivalent analyte model; geomean
Protocol: In brief, Protein G′ (Sigma Aldrich, P4689) was covalently coupled to the surface of a CM5 sensor chip using standard amine coupling reagents according to manufacturer's instructions (BIAcore). […] The resulting sensorgrams were evaluated using BIA evaluation 3.1 software and fitted to a bivalent analyte model, to provide relative binding data.

Row | Binder | Kd [nM]
38 | B1 | 2.1
39 | B2 | 2.4
40 | B3 | 2.1
41 | B4 | 2.3
42 | B5 | 2.3
43 | B6 | 4.6
44 | B7 | 2.5
45 | B8 | 3.3
46 | B9 | 2.7
47 | B10 | 3.2
48 | B11 | 8

Biological target: T1, human IgEλ (U266 derived)
Assay: HTRF competition: scFv against Eu-cryptate human IgE binding to human FcεRI-Fc; geomean (95% CI)

Row | Binder | IC50 [nM]
49 | B35 | 475
50 | B36 | 2
51 | B37 | 3
52 | B38 | 5
53 | B39 | 2
54 | B40 | 5
